Results reported in PMC4732765, “Long-Term Persistence of Bi-functionality Contributes to the Robustness of Microbial Life through Exaptation” (PLoS Genetics, 2016).

Columns and labels:
Test in all cases: purified protein
purified protein [1] = substrate: NC(=O)c1ncn([C@@H]2O[C@H](COP(=O)(O)O)[C@@H](O)[C@H]2O)c1N=CN[C@@H]1O[C@H](COP(=O)(O)O)[C@@H](O)[C@H]1O; type: biochemical, Syntrophotalea carbinolica; conditions: 25 °C, HisA reaction
purified protein [2] = substrate: O=C(O)c1ccccc1N[C@@H]1O[C@H](COP(=O)(O)O)[C@@H](O)[C@H]1O; type: biochemical, Syntrophotalea carbinolica; conditions: 25 °C, TrpF reaction, PRA generated in situ from anthranilate and excess PRPP with yeast anthranilate phosphoribosyl transferase
purified protein [3] = substrate: NC(=O)c1ncn([C@@H]2O[C@H](COP(=O)(O)O)[C@@H](O)[C@H]2O)c1N=CN[C@@H]1O[C@H](COP(=O)(O)O)[C@@H](O)[C@H]1O; type: biochemical, Thermotoga maritima; conditions: 25 °C, HisA reaction
purified protein [4] = substrate: O=C(O)c1ccccc1N[C@@H]1O[C@H](COP(=O)(O)O)[C@@H](O)[C@H]1O; type: biochemical, Thermotoga maritima; conditions: 25 °C, TrpF reaction, PRA generated in situ from anthranilate and excess PRPP with yeast anthranilate phosphoribosyl transferase
purified protein [5] = substrate: NC(=O)c1ncn([C@@H]2O[C@H](COP(=O)(O)O)[C@@H](O)[C@H]2O)c1N=CN[C@@H]1O[C@H](COP(=O)(O)O)[C@@H](O)[C@H]1O; type: biochemical, synthetic construct; conditions: 25 °C, HisA reaction, enzyme shows hysteresis
purified protein [6] = substrate: O=C(O)c1ccccc1N[C@@H]1O[C@H](COP(=O)(O)O)[C@@H](O)[C@H]1O; type: biochemical, synthetic construct; conditions: 25 °C, TrpF reaction, PRA generated in situ from anthranilate and excess PRPP with yeast anthranilate phosphoribosyl transferase, enzyme shows hysteresis
purified protein [7] = substrate: NC(=O)c1ncn([C@@H]2O[C@H](COP(=O)(O)O)[C@@H](O)[C@H]2O)c1N=CN[C@@H]1O[C@H](COP(=O)(O)O)[C@@H](O)[C@H]1O; type: biochemical, Desulfovibrio desulfuricans; conditions: 25 °C, HisA reaction
purified protein [8] = substrate: O=C(O)c1ccccc1N[C@@H]1O[C@H](COP(=O)(O)O)[C@@H](O)[C@H]1O; type: biochemical, Desulfovibrio desulfuricans; conditions: 25 °C, TrpF reaction, PRA generated in situ from anthranilate and excess PRPP with yeast anthranilate phosphoribosyl transferase

B1: pcHisA (Syntrophotalea carbinolica DSM 2380) (protein)
chain: MIVIPAIDLKEGRCVRLEQGLMEKDTVYNDNPGAQARSWQEQGGELLHIVDLDGAFAGVPRNRDAIRAIAEAVSIPTELGGGIRDLPTIEAYLELGIDRVILGTVAKENPELVREACRLFPGRIVVGIDARDGLVAVRGWADVTEKLATELAKEMEGFGVEAIIYTDIARDGMMGGPNLEATRALAESISVPVIASGGVSCLEDIARLMTIEDSGVTGVITGKALYTGSLDLREAVALTKGKA
notes: full-length hisA in pET24a (NdeI/XhoI), His-tag (HisTrap), E. coli T7 Express with pRARE
Purified protein [1]
  Km: 1.8 µM
  kcat: 0.4 s⁻¹
  kcat/Km: 220000 M⁻¹ s⁻¹
Purified protein [2]
  Km: 303 µM
  kcat: 0.001 s⁻¹
  kcat/Km: 3 M⁻¹ s⁻¹

B2: tmHisA (Thermotoga maritima MSB8) (protein)
chain: MLVVPAIDLFRGKVARMIKGRKENTIFYEKDPVELVEKLIEEGFTLIHVVDLSNAIENSGENLPVLEKLSEFAEHIQIGGGIRSLDYAEKLRKLGYRRQIVSSKVLEDPSFLKSLREIDVEPVFSLDTRGGRVAFKGWLAEEEIDPVSLLKRLKEYGLEEIVHTEIEKDGTLQEHDFSLTKKIAIEAEVKVLAAGGISSENSLKTAQKVHTETNGLLKGVIVGRAFLEGILTVEVMKRYAR
notes: full-length hisA in pET21a (NdeI/NotI), His-tag (HisTrap), E. coli BL21-CodonPlus-(DE3)-RIPL; heat step 70 °C
Purified protein [3]
  Km: 5.6 µM
  kcat: 1 s⁻¹
  kcat/Km: 180000 M⁻¹ s⁻¹
Purified protein [4]
  Km: 60 µM

B3: CA-Bact-HisA (synthetic construct) (protein)
chain: MRIIPAIDLKDGRCVRLVQGDMEKATVYNDDPLEMAKQWVEQGAEWLHVVDLDGAFAGKPVNEDVIKEIAQKVSVKVQLGGGIRDLEDIEAYLDAGVDRVIIGTVAVKNPELVREMVEKYGERIVVGIDARDGMVAVKGWKETTEVKATDLAKRFEDAGVEAIIYTDIARDGMMQGPNIEAIRELAKAVSLPVIASGGVSSLEDIEALLAIEESGVAGVIVGKALYEGRLDLREALALAKKL
notes: synthetic gene in pET24a, His-tag (HisTrap), E. coli BL21-Gold (DE3)
Purified protein [5]
  Km: 0.5 µM
  kcat: 0.05 s⁻¹
  kcat/Km: 100000 M⁻¹ s⁻¹
Purified protein [6]
  Km: 3.2 µM
  kcat: 0.00023 s⁻¹
  kcat/Km: 70 M⁻¹ s⁻¹

B4: ddHisA (Desulfovibrio desulfuricans ATCC 27774) (protein)
chain: MIIFPAVDIQNGKAVRLKQGRAHESTVFAESPVDAARAWEEAGARWLHVVDLDGAFDGAAQSRRIVRDICAALAIPVQLGGGIRDMHTAEAYLEAGVSRLIIGTLALEQPTLFADMCRAFPGRVGVSLDAEGGRLKSRGWVEDTGMTVDTALPRLLDDGAAFVIYTDIERDGMQCGVNVAALEHLARLSTVPVIAAGGVATLEDIQKLYPLTLETSLMGAVSGRALYEGTLDLKEANAWIDARKNTPESA
notes: as for B1
Purified protein [7]
  Km: 2.8 µM
  kcat: 1.3 s⁻¹
  kcat/Km: 460000 M⁻¹ s⁻¹
Purified protein [8]
  Km: 161 µM
  kcat: 0.0023 s⁻¹
  kcat/Km: 14 M⁻¹ s⁻¹
